Results from US20250108090A1 (published 2025).

B4: mouse apoptosis inhibitor of macrophage (AIM), wild-type recombinant (other, UniProt Q9QWK4 22-352, looked up)
chain: ESPTKVQLVGGAHRCEGRVEVEHNGQWGTVCDDGWDRRDVAVVCRELNCGAVIQTPRGASYQPPASEQRVLIQGVDCNGTEDTLAQCELNYDVFDCSHEEDAGAQCENPDSDLLFIPEDVRLVDGPGHCQGRVEVLHQSQWSTVCKAGWNLQVSKVVCRQLGCGRALLTYGSCNKNTQGKGPIWMGKMSCSGQEANLRSCLLSRLENNCTHGEDTWMECEDPFELKLVGGDTPCSGRLEVLHKGSWGSVCDDNWGEKEDQVVCKQLGCGKSLHPSPKTRKIYGPGAGRIWLDDVNCSGKEQSLEFCRHRLWGYHDCTHKEDVEVICTDFDV
notes: mature; also called rAIM; mouse AIM
B12: human apoptosis inhibitor of macrophage (AIM) (other)
chain: SPSGVRLVGGLHRCEGRVEVEQKGQWGTVCDDGWDIKDVAVLCRELGCGAASGTPSGILYEPPAEKEQKVLIQSVSCTGTEDTLAQCEQEEVYDCSHDEDAGASCENPESSFSPVPEGVRLADGPGHCKGRVEVKHQNQWYTVCQTGWSLRAAKVVCRQLGCGRAVLTQKRCNKHAYGRKPIWLSQMSCSGREATLQDCPSGPWGKNTCNHDEDTWVECEDPFDLRLVGGDNLCSGRLEVLHKGVWGSVCDDNWGEKEDQVVCKQLGCGKSLSPSFRDRKCYGPGVGRIWLDNVRCSGEEQSLEQCQHRFWGFHDCTHQEDVAVICSG
notes: also called human AIM; human rAIM

Key:
[1] = target: B12; assay: ELISA, DAMP coated at 2 µg/mL, AIM in solution (FIG. 4)
Excerpt: (§1) Therefore, AIM is considered to stably bind to DAMPs through two independent binding modes, namely, charge-based interaction and disulfide bond formation. These two binding sites are also used to bind AIM and IgM pentamer, as previously reported by the present inventors (Hiramoto et al., (2018) (the aforementioned)). […] Furthermore, IgM pentamer not bound to AIM inhibited the binding of AIM to DAMPs in a dose-dependent manner (FIG. 3G). That is, the binding to IgM pentamer functionally inactivates AIM in the binding to DAMPs. Furthermore, the present inventors evaluated under a fluorescence microscope whether the trap and uptake of PRDX1, HMGB1, and S100A9 by macrophages in vitro is inhibited in the presence of rAIM. […] It is known that somewhat larger molecules are more easily taken up by phagocytes (Aderem & Underhill, (1999). Mechanisms of Phagocytosis in Macrophages. Annu. Rev. Immunol. 17, 593-623.; Sarrias et al., (2005) (the aforementioned); Canton et al., Scavenger receptors in homeostasis and immunity. Nat. Rev. Immunol. 13, 621-634.). Therefore, induction of PRDX1 aggregation by AIM is further advantageous for PRDX1 phagocytosis.

[2] = target: B12; assay: ELISA, DAMP coated at 2 µg/mL, AIM in solution (FIG. 3A)
Excerpt: as §1

[3] = target: mouse HSP70-A1 (low endotoxin; ADI-ESP-502-D, Enzo) (mouse, UniProt Q61696 1-641); assay: ELISA, DAMP coated at 2 µg/mL, AIM in solution (FIG. 4)
Excerpt: as §1

[4] = target: B4; assay: as above
Excerpt: as §1

mouse AIM 2CS mutant = target: T1, mouse AIM 2CS mutant (mouse, UniProt Q9QWK4 22-352); assay: ELISA on coated DAMP (FIG. 3E)
T1 construct: Isolated cysteine of the SRCR2 domain replaced by serine; also called mouse 2CS mutant; 2CS AIM mutant
T1 sequence (looked up): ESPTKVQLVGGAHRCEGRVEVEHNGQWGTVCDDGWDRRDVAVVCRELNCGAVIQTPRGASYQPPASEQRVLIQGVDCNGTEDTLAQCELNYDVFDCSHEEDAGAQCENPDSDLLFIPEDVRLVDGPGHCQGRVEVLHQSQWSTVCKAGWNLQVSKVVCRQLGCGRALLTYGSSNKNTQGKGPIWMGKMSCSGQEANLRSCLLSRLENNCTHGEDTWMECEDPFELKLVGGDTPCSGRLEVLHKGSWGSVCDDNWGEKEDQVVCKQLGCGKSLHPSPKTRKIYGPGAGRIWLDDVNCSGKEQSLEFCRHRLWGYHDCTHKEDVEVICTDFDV
Procedure: 96-well ELISA plates were coated with DAMPs and control proteins resolved in Bicarbonate buffer (0.1 M NaHCO₃/Na₂CO₃, pH 9.6) at 2 μg/mL unless otherwise specified O/N at 4° C. After the plates were washed with tris buffered saline-tween (TBS-T) four times, they were coated with blocking buffer (1% Casein/TBS) for 2 h at RT. After a wash with TBS-T, AIM resolved in a dilution buffer (0.2% Casein/TBS/2 mM CaCl₂) at various concentrations was added to the well and plates were incubated for 1 h at RT. After 5-times wash with TBS-T/2 mM CaCl₂, biotinylated anti-mouse or human AIM antibody (clone #35 for mouse, clone 7 for human) was added to the wells and incubated for 1 h at RT. After 4-times wash with TBS-T/2 mM CaCl₂, Streptavidin-HRP diluted in 0.2% Casein/TBS/2 mM CaCl₂ was added to the wells and incubated for 1 h at RT. After 4-times wash with TBS-T/2 mM CaCl₂, TMB was added and incubated at RT for 10-25 min. The reaction was stopped by adding 1 N H₂SO₄ and thereby the absorbance at OD 450 nm was analyzed using a multiple plate reader.

[5] = target: B4; assay: ELISA, DAMP coated at 2 µg/mL, AIM in solution (FIG. 3A)
Excerpt: as §1

[6] = target: human HSP70 (Endotoxin Free; SPR-117A, StressMarq) (human, UniProt P0DMV8 1-641); assay: ELISA, DAMP coated at 2 µg/mL, AIM in solution (FIG. 4)
Excerpt: as §1

human HSP70 (Endotoxin Free; SPR-117A, StressMarq), sequence (P0DMV8 whole entry): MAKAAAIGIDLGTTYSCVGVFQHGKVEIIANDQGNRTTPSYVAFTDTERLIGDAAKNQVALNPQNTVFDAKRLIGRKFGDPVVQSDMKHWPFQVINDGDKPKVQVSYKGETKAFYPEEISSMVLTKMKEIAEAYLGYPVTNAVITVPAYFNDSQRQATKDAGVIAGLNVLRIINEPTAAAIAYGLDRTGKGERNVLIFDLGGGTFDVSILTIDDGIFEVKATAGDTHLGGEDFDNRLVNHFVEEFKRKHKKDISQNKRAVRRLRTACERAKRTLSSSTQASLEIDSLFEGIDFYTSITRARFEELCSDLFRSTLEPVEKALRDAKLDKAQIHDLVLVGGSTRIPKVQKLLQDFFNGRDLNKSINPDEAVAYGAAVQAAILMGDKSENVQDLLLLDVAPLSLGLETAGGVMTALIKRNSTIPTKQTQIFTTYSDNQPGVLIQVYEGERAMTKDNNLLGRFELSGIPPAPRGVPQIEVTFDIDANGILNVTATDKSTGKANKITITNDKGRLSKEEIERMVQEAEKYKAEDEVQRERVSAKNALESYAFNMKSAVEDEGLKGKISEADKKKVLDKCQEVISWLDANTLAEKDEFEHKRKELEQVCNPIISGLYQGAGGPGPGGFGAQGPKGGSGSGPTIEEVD
mouse HSP70-A1 (low endotoxin; ADI-ESP-502-D, Enzo), sequence (Q61696 whole entry): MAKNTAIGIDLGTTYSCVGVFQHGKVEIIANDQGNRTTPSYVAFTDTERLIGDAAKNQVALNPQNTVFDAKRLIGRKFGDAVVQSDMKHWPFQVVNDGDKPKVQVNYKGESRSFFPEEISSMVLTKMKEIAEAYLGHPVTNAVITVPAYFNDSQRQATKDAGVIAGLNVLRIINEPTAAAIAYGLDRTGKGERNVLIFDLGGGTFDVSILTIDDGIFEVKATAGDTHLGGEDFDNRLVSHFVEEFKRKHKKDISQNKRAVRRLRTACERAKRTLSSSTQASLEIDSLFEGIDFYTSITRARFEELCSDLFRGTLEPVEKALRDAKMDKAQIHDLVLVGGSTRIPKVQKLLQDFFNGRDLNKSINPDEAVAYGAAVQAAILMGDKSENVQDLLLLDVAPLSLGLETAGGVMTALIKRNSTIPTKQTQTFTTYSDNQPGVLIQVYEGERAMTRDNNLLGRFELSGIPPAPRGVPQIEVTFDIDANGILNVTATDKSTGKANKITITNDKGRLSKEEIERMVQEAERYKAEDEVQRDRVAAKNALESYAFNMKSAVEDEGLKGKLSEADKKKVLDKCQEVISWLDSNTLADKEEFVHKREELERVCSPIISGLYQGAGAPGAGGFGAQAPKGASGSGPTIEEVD

B1: human S100A8 (9876-58-050, R&D Systems) (ligand, UniProt P05109 1-93, looked up)
chain: MLTELEKALNSIIDVYHKYSLIKGNFHAVYRDDLKKLLETECPQYIRKKGADVWFKELDINTDGAVNFQEFLILVIKMGVAAHKKSHEESHKE
- binding result [1]: binds

B2: human S100A8/A9 (8226-S8-050, R&D Systems) (ligand)
chain 1: MLTELEKALNSIIDVYHKYSLIKGNFHAVYRDDLKKLLETECPQYIRKKGADVWFKELDINTDGAVNFQEFLILVIKMGVAAHKKSHEESHKE
chain 2: MTCKMSQLERNIETIINTFHQYSVKLGHPDTLNQGEFKELVRKDLQNFLKKENKNEKVIEHIMEDLDTNADKQLSFEEFIMLMARLTWASHEKMHEGDEGPGHHHKPGLGEGTP
notes: Complex of S100A8 and S100A9 as bought; also called S100A8/9
- binding result [1]: binds

B3: human S100A9 (9254-S9-050, R&D Systems) (ligand, UniProt P06702 1-114, looked up)
chain: MTCKMSQLERNIETIINTFHQYSVKLGHPDTLNQGEFKELVRKDLQNFLKKENKNEKVIEHIMEDLDTNADKQLSFEEFIMLMARLTWASHEKMHEGDEGPGHHHKPGLGEGTP
- binding result [2]: binds

Binder: B4
- binding result [3]: binds

B5: mouse S100A8/A9 (8916-S8-050, R&D Systems) (ligand)
chain 1: MPSELEKALSNLIDVYHNYSNIQGNHHALYKNDFKKMVTTECPQFVQNINIENLFRELDINSDNAINFEEFLAMVIKVGVASHKDSHKE
chain 2: MANKAPSQMERSITTIIDTFHQYSRKEGHPDTLSKKEFRQMVEAQLATFMKKEKRNEALINDIMEDLDTNQDNQLSFEECMMLMAKLIFACHEKLHENNPRGHGHSHGKGCGK
notes: as for B2
- binding result [4]: binds

B6: mouse S100A9 (2065-S9-050, R&D Systems) (ligand, UniProt P31725 1-113, looked up)
chain: MANKAPSQMERSITTIIDTFHQYSRKEGHPDTLSKKEFRQMVEAQLATFMKKEKRNEALINDIMEDLDTNQDNQLSFEECMMLMAKLIFACHEKLHENNPRGHGHSHGKGCGK
- binding result (mouse AIM 2CS mutant): no binding
- binding result [5]: binds

B7: mouse PRDX1 with a HA tag (generated in house) (ligand, UniProt P35700 1-199, looked up)
chain: MSSGNAKIGYPAPNFKATAVMPDGQFKDISLSEYKGKYVVFFFYPLDFTFVCPTEIIAFSDRADEFKKLNCQVIGASVDSHFCHLAWINTPKKQGGLGPMNIPLISDPKRTIAQDYGVLKADEGISFRGLFIIDDKGILRQITINDLPVGRSVDEIIRLVQAFQFTDKHGEVCPAGWKPGSDTIKPDVNKSKEYFSKQK
notes: also called peroxiredoxin 1; mouse PRDXs with a HA tag; not shown: HA tag
- binding result (mouse AIM 2CS mutant): no binding
- binding result [5]: binds

B8: mouse PRDX6 with a HA tag (generated in house) (ligand, UniProt O08709 1-224, looked up)
chain: MPGGLLLGDEAPNFEANTTIGRIRFHDFLGDSWGILFSHPRDFTPVCTTELGRAAKLAPEFAKRNVKLIALSIDSVEDHLAWSKDINAYNGETPTEKLPFPIIDDKGRDLAILLGMLDPVEKDDNNMPVTARVVFIFGPDKKLKLSILYPATTGRNFDEILRVVDSLQLTGTKPVATPVDWKKGESVMVVPTLSEEEAKQCFPKGVFTKELPSGKKYLRYTPQP
notes: also called PRDXs; not shown: HA tag
- binding result [4]: binds

B9: mouse PRDX2 with a HA tag (generated in house) (ligand, UniProt Q61171 1-198, looked up)
chain: MASGNAQIGKSAPDFTATAVVDGAFKEIKLSDYRGKYVVLFFYPLDFTFVCPTEIIAFSDHAEDFRKLGCEVLGVSVDSQFTHLAWINTPRKEGGLGPLNIPLLADVTKSLSQNYGVLKNDEGIAYRGLFIIDAKGVLRQITVNDLPVGRSVDEALRLVQAFQYTDEHGEVCPAGWKPGSDTIKPNVDDSKEYFSKHN
notes: as for B8
- binding result [4]: binds

B10: human HMGB1 (1690-HMB-050, R&D Systems) (ligand, UniProt P09429 1-215, looked up)
chain: MGKGDPKKPRGKMSSYAFFVQTCREEHKKKHPDASVNFSEFSKKCSERWKTMSAKEKGKFEDMAKADKARYEREMKTYIPPKGETKKKFKDPNAPKRPPSAFFLFCSEYRPKIKGEHPGLSIGDVAKKLGEMWNNTAADDKQPYEKKAAKLKEKYEKDIAAYRAKGKPDAAKKGVVKAEKSKKKKEEEEDEEDEEDEEEEEDEEDEDEEEDDDDE
notes: also called high-mobility-group-box 1
- binding result (mouse AIM 2CS mutant): no binding
- binding result [5]: binds
- binding result [2]: binds

B11: mouse S100A8 (9877-S8-050, R&D Systems) (ligand, UniProt P27005 1-89, looked up)
chain: MPSELEKALSNLIDVYHNYSNIQGNHHALYKNDFKKMVTTECPQFVQNINIENLFRELDINSDNAINFEEFLAMVIKVGVASHKDSHKE
- binding result [4]: binds

Binder: B12
- binding result [6]: binds
